# B1: CPEB3 Ribozyme (parent)
# chain: UAACAGGGGGCCACAGCAGAAGCGUUCACGUCGCAGCCCCUGUCAGAUUCUGGUGAAUCUGCGAAUUCUGCUGUAUAUCUC
# Variants of: B1
# Test: self-cleavage, relative activity (ratio to wild type); higher = more cleavage; in vitro, sequencing
# Summary of the method: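 Barcoded CPEB3 ribozyme mutants, produced by rounds of error-prone PCR, self-cleaved while being transcribed with T7 RNA polymerase for 5 hours at 37°C and during a subsequent 15 min DNase I step before EDTA was added. Sequencing of template-switched cDNA on Illumina gave cleaved and total reads, and DNA sequencing assigned barcodes to variants. Each variant's relative activity is its cleaved/total read fraction divided by the unmutated ribozyme's fraction, averaged across three batches. A variant needed a minimum of 5 reads.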
row,Variant,self-cleavage
1,UAGCAGAGGGCCACAGCAGAAGCGUUCACGUCGCAGCCCCUGUCAGAUUCUGGUGAAUCUGCGAAUUCUGCUGUAUAUCUC [A3G G7A],0.47
2,UAGCAGUGGGCCACAGCAGAAGCGUUCACGUCGCAGCCCCUGUCAGAUUCUGGUGAAUCUGCGAAUUCUGCUGUAUAUCUC [A3G G7U],0.45
3,UAGCAGGAGGCCACAGCAGAAGCGUUCACGUCGCAGCCCCUGUCAGAUUCUGGUGAAUCUGCGAAUUCUGCUGUAUAUCUC [A3G G8A],0.37
4,UAGCAGGUGGCCACAGCAGAAGCGUUCACGUCGCAGCCCCUGUCAGAUUCUGGUGAAUCUGCGAAUUCUGCUGUAUAUCUC [A3G G8U],0.34
5,UAGCAGGGAGCCACAGCAGAAGCGUUCACGUCGCAGCCCCUGUCAGAUUCUGGUGAAUCUGCGAAUUCUGCUGUAUAUCUC [A3G G9A],0.53
6,UAGCAGGGCGCCACAGCAGAAGCGUUCACGUCGCAGCCCCUGUCAGAUUCUGGUGAAUCUGCGAAUUCUGCUGUAUAUCUC [A3G G9C],0.6
7,UAGCAGGGUGCCACAGCAGAAGCGUUCACGUCGCAGCCCCUGUCAGAUUCUGGUGAAUCUGCGAAUUCUGCUGUAUAUCUC [A3G G9U],0.34
8,UAGCAGGGGACCACAGCAGAAGCGUUCACGUCGCAGCCCCUGUCAGAUUCUGGUGAAUCUGCGAAUUCUGCUGUAUAUCUC [A3G G10A],0.46
9,UAGCAGGGGCCCACAGCAGAAGCGUUCACGUCGCAGCCCCUGUCAGAUUCUGGUGAAUCUGCGAAUUCUGCUGUAUAUCUC [A3G G10C],0.35
10,UAGCAGGGGGCCACAACAGAAGCGUUCACGUCGCAGCCCCUGUCAGAUUCUGGUGAAUCUGCGAAUUCUGCUGUAUAUCUC [A3G G16A],0.38
11,UAGCAGGGGGCCACACCAGAAGCGUUCACGUCGCAGCCCCUGUCAGAUUCUGGUGAAUCUGCGAAUUCUGCUGUAUAUCUC [A3G G16C],0.47
12,UAGCAGGGGGCCACAUCAGAAGCGUUCACGUCGCAGCCCCUGUCAGAUUCUGGUGAAUCUGCGAAUUCUGCUGUAUAUCUC [A3G G16U],0.62
13,UAGCAGGGGGCCACAGCAUAAGCGUUCACGUCGCAGCCCCUGUCAGAUUCUGGUGAAUCUGCGAAUUCUGCUGUAUAUCUC [A3G G19U],0.41
14,UAGCAGGGGGCCACAGCAGAAACGUUCACGUCGCAGCCCCUGUCAGAUUCUGGUGAAUCUGCGAAUUCUGCUGUAUAUCUC [A3G G22A],0.29
15,UAGCAGGGGGCCACAGCAGAAUCGUUCACGUCGCAGCCCCUGUCAGAUUCUGGUGAAUCUGCGAAUUCUGCUGUAUAUCUC [A3G G22U],0.15
16,UAGCAGGGGGCCACAGCAGAAGCAUUCACGUCGCAGCCCCUGUCAGAUUCUGGUGAAUCUGCGAAUUCUGCUGUAUAUCUC [A3G G24A],0.6
17,UAGCAGGGGGCCACAGCAGAAGCGUUCACAUCGCAGCCCCUGUCAGAUUCUGGUGAAUCUGCGAAUUCUGCUGUAUAUCUC [A3G G30A],0.44

row,Variant,self-cleavage
1,UAGCAGGGGGCCACAGCAGAAGCGUUCACGUCACAGCCCCUGUCAGAUUCUGGUGAAUCUGCGAAUUCUGCUGUAUAUCUC [A3G G33A],0.38
2,UAGCAGGGGGCCACAGCAGAAGCGUUCACGUCCCAGCCCCUGUCAGAUUCUGGUGAAUCUGCGAAUUCUGCUGUAUAUCUC [A3G G33C],0.31
3,UAGCAGGGGGCCACAGCAGAAGCGUUCACGUCUCAGCCCCUGUCAGAUUCUGGUGAAUCUGCGAAUUCUGCUGUAUAUCUC [A3G G33U],0.11
4,UAGCAGGGGGCCACAGCAGAAGCGUUCACGUCGCAACCCCUGUCAGAUUCUGGUGAAUCUGCGAAUUCUGCUGUAUAUCUC [A3G G36A],0.2
5,UAGCAGGGGGCCACAGCAGAAGCGUUCACGUCGCAUCCCCUGUCAGAUUCUGGUGAAUCUGCGAAUUCUGCUGUAUAUCUC [A3G G36U],0.26
6,UAGCAGGGGGCCACAGCAGAAGCGUUCACGUCGCAGCCCCUGUCAAAUUCUGGUGAAUCUGCGAAUUCUGCUGUAUAUCUC [A3G G46A],0.13
7,UAGCAGGGGGCCACAGCAGAAGCGUUCACGUCGCAGCCCCUGUCACAUUCUGGUGAAUCUGCGAAUUCUGCUGUAUAUCUC [A3G G46C],0.39
8,UAGCAGGGGGCCACAGCAGAAGCGUUCACGUCGCAGCCCCUGUCAGAUUCUAGUGAAUCUGCGAAUUCUGCUGUAUAUCUC [A3G G52A],1.14
9,UAGCAGGGGGCCACAGCAGAAGCGUUCACGUCGCAGCCCCUGUCAGAUUCUUGUGAAUCUGCGAAUUCUGCUGUAUAUCUC [A3G G52U],1.14
10,UAGCAGGGGGCCACAGCAGAAGCGUUCACGUCGCAGCCCCUGUCAGAUUCUGAUGAAUCUGCGAAUUCUGCUGUAUAUCUC [A3G G53A],1.02
11,UAGCAGGGGGCCACAGCAGAAGCGUUCACGUCGCAGCCCCUGUCAGAUUCUGCUGAAUCUGCGAAUUCUGCUGUAUAUCUC [A3G G53C],1.13
12,UAGCAGGGGGCCACAGCAGAAGCGUUCACGUCGCAGCCCCUGUCAGAUUCUGGUUAAUCUGCGAAUUCUGCUGUAUAUCUC [A3G G55U],1.12
13,UAGCAGGGGGCCACAGCAGAAGCGUUCACGUCGCAGCCCCUGUCAGAUUCUGGUGAAUCUACGAAUUCUGCUGUAUAUCUC [A3G G61A],0.53
14,UAGCAGGGGGCCACAGCAGAAGCGUUCACGUCGCAGCCCCUGUCAGAUUCUGGUGAAUCUUCGAAUUCUGCUGUAUAUCUC [A3G G61U],0.8
15,UAGCAGGGGGCCACAGCAGAAGCGUUCACGUCGCAGCCCCUGUCAGAUUCUGGUGAAUCUGCAAAUUCUGCUGUAUAUCUC [A3G G63A],0.75
16,UAGCAGGGGGCCACAGCAGAAGCGUUCACGUCGCAGCCCCUGUCAGAUUCUGGUGAAUCUGCCAAUUCUGCUGUAUAUCUC [A3G G63C],1.06
17,UAGCAGGGGGCCACAGCAGAAGCGUUCACGUCGCAGCCCCUGUCAGAUUCUGGUGAAUCUGCUAAUUCUGCUGUAUAUCUC [A3G G63U],1.12

# — the RNAGym collection of RNA variant scans (doi:10.1093/nar/gkz1192)
